Data on 6 molecules can be found in article PMC10138814, “Structural Insights into the Binding of Red Fluorescent Protein mCherry-Specific Nanobodies” (International Journal of Molecular Sciences, 2023).

Holding throughout (settings): both partners purified
The target in one assay is T1, DsRed (Discosoma sp., UniProt Q9U6Y8).
T1 construct: DsRed red fluorescent protein; PDB 1ZGO was used for structural alignment; His6-SUMO-DsRed printed as 39.6 kD; also called tetrameric DsRed protein; His6-SUMO-DsRed (before cleavage); source: prokaryotic expression system, purified (tags removed by ULP1 on the column); not shown: His6, N-terminal, cleaved; SUMO, N-terminal, cleaved
Description: BLI; His-SUMO-LaM nanobody (100 nM) loaded on Ni-NTA biosensors; mCherry or DsRed in solution; 20 mM HEPES pH 7.4, 150 mM NaCl, 0.005% Tween-20; association 600 s, dissociation 600 s; 1:1 global fit. (In general: Biolayer interferometry detects binding as a change in optical thickness at a sensor tip.)

For assay [1], the target named is T2, mCherry (Discosoma sp. DsRed-derived, engineered …, chromophore (residues not given)).
T2 construct: Engineered monomeric derivative of DsRed; also called His10-TEV site-mCherry (before cleavage); H10T-mCherry; source: E. coli BL21(DE3), purified (Ni-NTA, TEV cleavage on the column); not shown: His10, N-terminal, cleaved
The description is as above.

For assay [2], the target named is T2, mCherry. Description: ITC; 100 uM nanobody in the syringe into 10 uM mCherry (or 8.9 uM mCherry-LaM1 or mCherry-LaM3 complex) in the cell; 25 °C; one set of sites.

T1 sequence (Q9U6Y8 whole entry): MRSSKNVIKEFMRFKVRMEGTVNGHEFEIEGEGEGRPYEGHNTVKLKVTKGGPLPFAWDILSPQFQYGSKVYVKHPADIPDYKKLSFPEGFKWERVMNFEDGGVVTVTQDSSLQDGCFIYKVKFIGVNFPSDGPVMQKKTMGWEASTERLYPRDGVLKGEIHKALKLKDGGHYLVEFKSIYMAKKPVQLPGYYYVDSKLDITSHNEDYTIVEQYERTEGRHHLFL

B1: His-SUMO-LaM3 (VHH)
VHH: QVQLVQSGGGLVQAGGSLRLSCAASGRTFSDIAVGWFRQTPGKEREFVAAISWSGLIINYGDSVEDRFTISRDNAKSAVYLQMNSLKPEDTAVYYCAARIGMNYYYAREIEYPYWGQGTQVTVSK
notes: held in PDB 8ILX; Captured by its His tag on NTA biosensors in BLI; vector pET28a-SUMO; also called Sumo-His tagged LaM3; source: E. coli BL21(DE3), purified (Ni-NTA, eluted with imidazole); not shown: His, N-terminal, kept; SUMO, N-terminal, kept
With B1, in the assay with DsRed, the Kd – broadly, the constant that tells how readily two partners part at equilibrium – is 7130 nM; the koff (in general, the first-order rate constant of dissociation) was found to be 0.000443 s⁻¹; the kon – broadly, a measure of how fast the partners come together – stood at 62.2 ± 1.02 M⁻¹ s⁻¹. Moreover, in the assay with mCherry [1], binding was put at a Kd of 30.6 nM, the koff turned out to be 0.00324 s⁻¹ and the kon was 106000 M⁻¹ s⁻¹.

B2: LaM3 (VHH)
VHH: QVQLVQSGGGLVQAGGSLRLSCAASGRTFSDIAVGWFRQTPGKEREFVAAISWSGLIINYGDSVEDRFTISRDNAKSAVYLQMNSLKPEDTAVYYCAARIGMNYYYAREIEYPYWGQGTQVTVSK
notes: Tag-removed form; also called llama nanobody against mCherry 3; source: E. coli BL21(DE3), purified (Ni-NTA, ULP1 cleavage on the column, ion exchange or size exclusion chromatography); not shown: His, N-terminal, cleaved; SUMO, N-terminal, cleaved
Turning to B2, in the assay with mCherry [2], binding was characterised by a dissociation constant (Kd) of 13.7 nM; the dH is -13.7 ± 0.157 kcal/mol; the stoichiometry N (in general, the number of molecules, sites or subunits per partner or assembly) was 0.913 sites.

B3: His-SUMO-LaM1 (VHH)
VHH: QVQLVESGGGLVQAGDSLRLSCAASGRTFENYAMGWFRQAPGKEREFVGAVSWGGGRTYYADNVKGRFTISRDNAKKNTVYLQMNSLKPEDTAVYYCAAKSVLTIATMRVPDEYNYWGQGTQVTVS
notes: held in PDB 8IM1; Captured by its His tag on NTA biosensors in BLI; vector pET28a-SUMO; also called Sumo-His tagged LaM1; source: E. coli BL21(DE3), purified (Ni-NTA, eluted with imidazole); not shown: His, N-terminal, kept; SUMO, N-terminal, kept
In the assay with mCherry [1], B3 gave a Kd of 12.9 nM, a koff of 0.00117 s⁻¹ and a kon of 91300 M⁻¹ s⁻¹.

B4: LaM1 (VHH)
VHH: QVQLVESGGGLVQAGDSLRLSCAASGRTFENYAMGWFRQAPGKEREFVGAVSWGGGRTYYADNVKGRFTISRDNAKKNTVYLQMNSLKPEDTAVYYCAAKSVLTIATMRVPDEYNYWGQGTQVTVS
notes: Tag-removed form; also called llama nanobody against mCherry 1; source: E. coli BL21(DE3), purified (Ni-NTA, ULP1 cleavage on the column, ion exchange or size exclusion chromatography); not shown: His, N-terminal, cleaved; SUMO, N-terminal, cleaved
As to B4, in the assay with mCherry [2], the Kd stood at 289 nM, the dH is -28.7 ± 0.906 kcal/mol and the “stoichiometry N” value worked out at 1 sites.

B5: His-SUMO-LaM8 (VHH)
VHH: QVQLVESGGGLVQAGGSLRLSCAVSGRPFSEYNLGWFRQAPGKEREFVARIRSSGTTVYTDSVKGRFSASRDNAKNMGYLQLNSLEPEDTAVYYCAMSRVDTDSPAFYDYWGQGTQVTVST
notes: held in PDB 8IM0; Captured by its His tag on NTA biosensors in BLI; vector pET28a-SUMO; also called Sumo-His tagged LaM8; source: E. coli BL21(DE3), purified (Ni-NTA, eluted with imidazole); not shown: His, N-terminal, kept; SUMO, N-terminal, kept
With B5, in the assay with mCherry [1], the affinity, expressed as Kd, was 36.8 nM; the koff worked out at 0.00926 s⁻¹; the kon was determined as 252000 M⁻¹ s⁻¹.

B6: LaM8 (VHH)
VHH: QVQLVESGGGLVQAGGSLRLSCAVSGRPFSEYNLGWFRQAPGKEREFVARIRSSGTTVYTDSVKGRFSASRDNAKNMGYLQLNSLEPEDTAVYYCAMSRVDTDSPAFYDYWGQGTQVTVST
notes: Tag-removed form; also called llama nanobody against mCherry 8; source: E. coli BL21(DE3), purified (Ni-NTA, ULP1 cleavage on the column, ion exchange or size exclusion chromatography); not shown: His, N-terminal, cleaved; SUMO, N-terminal, cleaved
In the case of B6, in the assay with mCherry [2], the Kd was determined as 199 nM, the dH is -11.2 ± 1.51 kcal/mol and the “stoichiometry N” value was found to be 0.842 sites.
